# In patent publication US20140274782A1 (Stanford University, published 2014):
# T1: RHBDD1-rhomboid domain containing 1 (RHBDD1) (human, UniProt Q8TEB9 1-315, limits assumed)
# T1 sequence (looked up): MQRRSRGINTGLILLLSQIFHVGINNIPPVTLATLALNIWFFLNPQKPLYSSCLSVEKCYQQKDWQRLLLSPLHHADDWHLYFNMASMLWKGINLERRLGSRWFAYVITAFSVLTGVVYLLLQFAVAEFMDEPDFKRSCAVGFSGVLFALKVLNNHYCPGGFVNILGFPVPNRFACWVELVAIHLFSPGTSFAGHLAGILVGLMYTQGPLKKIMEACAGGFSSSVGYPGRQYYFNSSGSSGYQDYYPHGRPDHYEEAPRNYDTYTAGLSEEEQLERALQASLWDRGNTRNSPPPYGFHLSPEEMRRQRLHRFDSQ
# T2: CRYZL1-crystallin, zeta (quinone reductase)-like 1 (CRYZL1) (human, UniProt O95825 1-349, limits assumed)
# T2 sequence (looked up): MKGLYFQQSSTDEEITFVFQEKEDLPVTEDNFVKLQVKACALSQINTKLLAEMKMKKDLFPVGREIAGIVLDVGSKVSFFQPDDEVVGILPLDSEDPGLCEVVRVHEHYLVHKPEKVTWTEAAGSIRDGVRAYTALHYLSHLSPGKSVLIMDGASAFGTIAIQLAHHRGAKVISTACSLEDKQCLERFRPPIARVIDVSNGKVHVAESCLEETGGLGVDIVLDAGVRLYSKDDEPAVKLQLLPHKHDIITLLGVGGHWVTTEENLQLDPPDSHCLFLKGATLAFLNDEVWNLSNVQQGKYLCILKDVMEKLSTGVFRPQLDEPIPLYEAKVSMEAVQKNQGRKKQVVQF
# T3: SEC22B-Vesicle-trafficking protein SEC22b (human, UniProt O75396 1-215)
# T3 sequence (looked up): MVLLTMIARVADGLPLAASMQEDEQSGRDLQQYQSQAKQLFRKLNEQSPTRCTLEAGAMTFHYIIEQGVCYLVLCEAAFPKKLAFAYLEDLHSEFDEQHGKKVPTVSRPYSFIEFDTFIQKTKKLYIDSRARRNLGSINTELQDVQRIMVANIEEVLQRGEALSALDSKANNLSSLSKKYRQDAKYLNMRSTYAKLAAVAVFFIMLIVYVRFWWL
# T4: C11orf73-chromosome 11 open reading frame 73 (C11orf73) (human, UniProt Q53FT3 1-197)
# T4 sequence (looked up): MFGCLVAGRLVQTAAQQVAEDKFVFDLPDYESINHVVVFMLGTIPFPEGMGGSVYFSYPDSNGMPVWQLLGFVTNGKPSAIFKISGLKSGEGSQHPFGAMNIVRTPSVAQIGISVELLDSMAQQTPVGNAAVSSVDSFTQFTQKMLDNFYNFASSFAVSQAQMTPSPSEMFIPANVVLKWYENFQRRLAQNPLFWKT
# T5: TMED5-transmembrane emp24 protein transport domain containing 5 (TMED5) (human, UniProt Q9Y3A6 28-229, limits assumed)
# T5 sequence (looked up): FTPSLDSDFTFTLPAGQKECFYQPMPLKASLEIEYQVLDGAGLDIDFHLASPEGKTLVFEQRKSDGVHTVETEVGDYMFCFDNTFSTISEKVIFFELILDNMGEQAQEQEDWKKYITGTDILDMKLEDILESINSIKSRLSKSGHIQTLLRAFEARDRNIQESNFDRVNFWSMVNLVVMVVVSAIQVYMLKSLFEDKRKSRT
# T6: GPR108-G protein-coupled receptor 108 (GPR108) (human, UniProt Q9NPR9 33-543, limits assumed)
# T6 sequence (looked up): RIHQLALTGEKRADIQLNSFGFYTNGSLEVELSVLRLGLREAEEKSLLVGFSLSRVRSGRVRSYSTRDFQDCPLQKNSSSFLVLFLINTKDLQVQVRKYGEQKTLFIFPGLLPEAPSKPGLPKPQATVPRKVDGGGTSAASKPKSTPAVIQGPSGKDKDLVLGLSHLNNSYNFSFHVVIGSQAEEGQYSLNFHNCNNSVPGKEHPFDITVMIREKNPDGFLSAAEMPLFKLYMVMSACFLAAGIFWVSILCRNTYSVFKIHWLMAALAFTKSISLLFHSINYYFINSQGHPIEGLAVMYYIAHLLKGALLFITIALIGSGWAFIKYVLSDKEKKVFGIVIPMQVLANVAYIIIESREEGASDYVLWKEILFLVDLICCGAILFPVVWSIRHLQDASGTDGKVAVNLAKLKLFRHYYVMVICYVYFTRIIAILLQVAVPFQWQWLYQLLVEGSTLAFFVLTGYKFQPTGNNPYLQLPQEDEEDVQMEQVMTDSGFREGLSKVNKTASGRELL
# T7: GHRL-ghrelin/obestatin preprohormone (GHRL) (human, UniProt Q9UBU3 1-117, limits assumed)
# T7 sequence (looked up): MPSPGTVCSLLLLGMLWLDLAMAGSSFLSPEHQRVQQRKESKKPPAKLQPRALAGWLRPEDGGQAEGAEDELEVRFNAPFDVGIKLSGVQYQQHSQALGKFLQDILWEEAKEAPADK
# Tests used:
# Test in all cases: ProtoArray, GST-treated control array;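 further: human protein microarray (about 9500 recombinant proteins) incubated overnight with GST alone plus SAM cofactor as the negative control for G9a SET domain methylation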
# [1] = molecular target: CA13-carbonic anhydrase XIII (CA13) (human, UniProt Q8N1Q1 1-262)
# CA13-carbonic anhydrase XIII (CA13), sequence (Q8N1Q1 whole entry, the tested form may be a part): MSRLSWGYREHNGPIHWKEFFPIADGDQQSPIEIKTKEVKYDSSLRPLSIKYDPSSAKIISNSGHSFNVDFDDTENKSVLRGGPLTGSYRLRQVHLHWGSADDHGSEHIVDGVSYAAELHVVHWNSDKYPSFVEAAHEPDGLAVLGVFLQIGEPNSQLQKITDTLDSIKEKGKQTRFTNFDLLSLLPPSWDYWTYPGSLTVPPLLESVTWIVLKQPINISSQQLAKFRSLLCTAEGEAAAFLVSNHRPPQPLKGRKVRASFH
# [2] = molecular target: T1, RHBDD1-rhomboid domain containing 1 …
# [3] = molecular target: T2, CRYZL1-crystallin, zeta (quinone …)
# [4] = molecular target: T3, SEC22B-Vesicle-trafficking protein …
# [5] = molecular target: DGKA-diacylglycerol kinase, alpha 80 kDa (DGKA) (human, UniProt P23743 1-735)
# DGKA-diacylglycerol kinase, alpha 80 kDa (DGKA), sequence (P23743 whole entry): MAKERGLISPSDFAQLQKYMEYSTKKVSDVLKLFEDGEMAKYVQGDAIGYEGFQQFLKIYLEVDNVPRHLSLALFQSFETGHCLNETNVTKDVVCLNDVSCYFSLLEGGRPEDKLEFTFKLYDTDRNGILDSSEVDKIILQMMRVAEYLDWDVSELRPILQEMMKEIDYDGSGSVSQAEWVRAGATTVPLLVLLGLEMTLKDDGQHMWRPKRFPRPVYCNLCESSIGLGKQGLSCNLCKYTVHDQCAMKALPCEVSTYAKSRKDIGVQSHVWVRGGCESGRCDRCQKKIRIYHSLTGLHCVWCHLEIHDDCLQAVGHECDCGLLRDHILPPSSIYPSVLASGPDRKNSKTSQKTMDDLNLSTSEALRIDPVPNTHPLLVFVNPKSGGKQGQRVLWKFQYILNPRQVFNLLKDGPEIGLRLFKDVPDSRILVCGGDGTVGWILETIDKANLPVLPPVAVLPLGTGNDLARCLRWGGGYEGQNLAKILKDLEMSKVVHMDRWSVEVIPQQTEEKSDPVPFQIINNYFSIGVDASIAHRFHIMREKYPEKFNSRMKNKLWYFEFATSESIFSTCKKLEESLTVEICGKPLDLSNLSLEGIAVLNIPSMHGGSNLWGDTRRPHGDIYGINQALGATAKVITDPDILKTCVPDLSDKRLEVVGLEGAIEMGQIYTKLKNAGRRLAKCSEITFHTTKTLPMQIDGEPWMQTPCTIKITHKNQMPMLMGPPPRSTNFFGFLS
# [6] = molecular target: T4, C11orf73-chromosome 11 open reading …
# [7] = molecular target: T5, TMED5-transmembrane emp24 protein …
# [8] = molecular target: SERPINB2-serpin peptidase inhibitor, clade B (ovalbumin), member 2 (SERPINB2) (human, UniProt P05120 1-415)
# SERPINB2-serpin peptidase inhibitor, clade B (ovalbumin), member 2 (SERPINB2), sequence (P05120 whole entry): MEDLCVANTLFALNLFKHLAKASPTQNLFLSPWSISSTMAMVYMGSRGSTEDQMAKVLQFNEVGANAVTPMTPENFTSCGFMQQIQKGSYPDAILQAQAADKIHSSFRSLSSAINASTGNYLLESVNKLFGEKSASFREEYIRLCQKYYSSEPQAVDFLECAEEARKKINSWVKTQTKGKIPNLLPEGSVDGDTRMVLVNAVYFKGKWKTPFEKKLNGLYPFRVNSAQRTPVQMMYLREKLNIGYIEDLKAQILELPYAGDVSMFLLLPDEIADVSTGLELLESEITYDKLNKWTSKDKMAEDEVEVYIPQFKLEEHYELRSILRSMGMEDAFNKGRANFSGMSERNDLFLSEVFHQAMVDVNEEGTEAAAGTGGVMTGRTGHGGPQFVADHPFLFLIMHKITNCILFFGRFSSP
# [9] = molecular target: N/A-cDNA clone IMAGE:4623222, partial cds (human)
# [10] = molecular target: T6, GPR108-G protein-coupled receptor 108 …
# [11] = molecular target: T7, GHRL-ghrelin/obestatin preprohormone …
# [12] = molecular target: LOC400500-PREDICTED: Homo sapiens hypothetical LOC400500 (LOC400500) (human)
binder,measurement,setting,value
"3× Flag-3×MBT (designed binder, also called Flag-tagged 3×MBT; 3xFlag-3xMBT; not shown: made by PreScission cleavage of GST-3× Flag-3×MBT) EEWSSSQPATGEKKECWSWESYLEEQKAITAPVSLFQDSQAVTHNKNGFKLGMKLEGIDPQHPSMYFILTVAEVCGYRLRLHFDGYSECHDFWVNANSPDIHPAGWFEKTGHKLQPPKGYKEEEFSWSQYLRSTRAQAAPKHLFVSQSHSPPPLGFQVGMKLEAVDRMNPSLVCVASVTDVVDSRFLVHFDNWDDTYDYWCDPSSPYIHPVGWCQKQGKPLTPPQDYPDPDNFCWEKYLEETGASAVPTWAFKVRPPHSFLVNMKLEAVDRRNPALIRVASVEDVEDHRIKIHFDGWSHGYDFWIDADHPDIHPAGWCSKTGHPLQPPLGPREPSSASPGG",GST Average SNR,[1],0.728
same,GST Average SNR,[2],-0.11
same,GST Average SNR,[3],-1.42
same,GST Average SNR,[4],-0.797
same,GST Average SNR,[5],1.23
same,GST Average SNR,[6],-1.4
same,GST Average SNR,[7],-0.425
same,GST Average SNR,[8],0.54
same,GST Average SNR,[9],1.04
same,GST Average SNR,[10],-0.788
same,GST Average SNR,[11],0.402
same,GST Average SNR,[12],-0.119
